Positions count from the first letter of the chain named.
B1: 抗SARS-CoV-2 RBD VHH抗体 B02 (VHH, not shown: small tags and cut ends)
VHH: QVQLVESGGALVQPGGSLRLSCAASGFPVNRNTMHWFRQAPGKEREGVAGISSRGDWTYYEDSVKGRFTISRDDARNTVYLQMNSLKPEDTAVYYCAALLWNYGGVCWGQGTQVTVGG
notes: also called B02
B2: 抗SARS-CoV-2 RBD VHH抗体 B04 (VHH, not shown: small tags and cut ends)
VHH: B1 VHH with N102H, C107Y, V116A
notes: also called B04
B3: 抗SARS-CoV-2 RBD VHH抗体 B13 (VHH, not shown: small tags and cut ends)
VHH: B1 VHH with R31H, N32H, H35L, S53F, D56N, L99H, N102L, Y103L, C107Y
notes: also called B13
B4: 抗SARS-CoV-2 RBD VHH抗体 B16 (VHH, not shown: small tags and cut ends)
VHH: QVQLVESGGALVQPGGSLRLSCAASGFPVNHNAVHWFRQAPGKEREGVAGISHLVHRTYYEDSVKGRFTISRDDARNTVYLQMNSLKPEDTAVYYCAAYLWLLGGVYWGQGTQVTVGG
notes: also called B16
B5: 抗SARS-CoV-2 RBD VHH抗体 A15 (VHH, not shown: small tags and cut ends)
VHH: QVQLVESGGALVQPGGSLRLSCAASGFPVNRNTMHWYRQAPGKEREGVAGISSRGDWTYYEDSVKGRFTISRDDARNTVYLQMSSLKPEDTAVYYCAAVGVLSVSAFGWLYWGQGTQVTVGG
notes: also called A15
B6: 抗SARS-CoV-2 RBD VHH抗体 A02 (VHH, not shown: small tags and cut ends)
VHH: B1 VHH with L99Y, N102L, Y103L, C107Y
notes: also called A02
B7: 抗SARS-CoV-2 RBD VHH抗体 A03 (VHH, not shown: small tags and cut ends)
VHH: QVQLVESGGALVQPGGSLRLSCAASGFPVNHNAMHWFRQAPGKERESVAGISHVVYRTYYEDSVKGRFTISRDDARNTVYLQMNSLKPEDTAVYYCAAVALTDLRLYWGQGTQVTVGG
notes: also called A03

biological target: T1, SARS-CoV-2 RBDタンパク質(Recombinant SARS-CoV-2, S1 Subunit Protein (RBD)、RayBiotech Life, Inc.) (SARS-CoV-2, UniProt P0DTC2 319-541); experiment: ELISA on coated RBD, legend of Figure 2, n=4

Question: Does B1 bind?
Answer: binds

Question: Does B2 bind?
Answer: binds

Question: Does B3 bind?
Answer: binds

Question: Does B4 bind?
Answer: binds

Question: Does B5 bind?
Answer: binds

biological target: T1, SARS-CoV-2 RBDタンパク質(Recombinant …; experiment: ELISA, RBD coated 50 ng/well, VHH 50 ng/well, anti-FLAG detection, A450, n=4

Question: Does B6 bind?
Answer: binds

Question: Does B7 bind?
Answer: binds

Reference: patent JP2023032631A (dated 2023)
